Measured values taken from patent US20260146093A1 (DREN BIO MANAGEMENT, published 2026).

T1: human Trop-2 expressed on cells (A-431, NCI-N87, SKBR3, CHO-K1-hTrop2) (human, UniProt P09758 27-323)
T1 sequence: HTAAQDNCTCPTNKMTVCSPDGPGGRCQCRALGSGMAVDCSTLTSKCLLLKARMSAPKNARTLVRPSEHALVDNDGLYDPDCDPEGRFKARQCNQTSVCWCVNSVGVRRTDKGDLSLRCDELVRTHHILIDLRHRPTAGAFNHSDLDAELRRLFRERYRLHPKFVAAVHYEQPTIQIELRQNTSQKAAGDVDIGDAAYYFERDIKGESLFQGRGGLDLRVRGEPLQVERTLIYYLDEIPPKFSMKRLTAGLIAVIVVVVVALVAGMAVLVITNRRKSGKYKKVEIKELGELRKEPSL

T2: Human Trop-2 ECD protein (human, UniProt P09758 27-274)
T2 construct: also called hTrop-2 ECD; not shown: HIS tag (captured on the biosensor via anti-HIS Tag)
T2 sequence: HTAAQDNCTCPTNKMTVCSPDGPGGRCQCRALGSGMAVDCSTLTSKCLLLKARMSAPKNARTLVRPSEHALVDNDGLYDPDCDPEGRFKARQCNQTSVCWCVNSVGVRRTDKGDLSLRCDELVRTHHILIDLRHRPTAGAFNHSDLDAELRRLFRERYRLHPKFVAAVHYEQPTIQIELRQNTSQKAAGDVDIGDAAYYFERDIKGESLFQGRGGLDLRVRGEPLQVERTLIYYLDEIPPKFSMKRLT

T3: human Dectin-1 isoform A on HEK-Blue hDectin-1a cells (human, UniProt Q9BXN2 1-247)
T3 sequence: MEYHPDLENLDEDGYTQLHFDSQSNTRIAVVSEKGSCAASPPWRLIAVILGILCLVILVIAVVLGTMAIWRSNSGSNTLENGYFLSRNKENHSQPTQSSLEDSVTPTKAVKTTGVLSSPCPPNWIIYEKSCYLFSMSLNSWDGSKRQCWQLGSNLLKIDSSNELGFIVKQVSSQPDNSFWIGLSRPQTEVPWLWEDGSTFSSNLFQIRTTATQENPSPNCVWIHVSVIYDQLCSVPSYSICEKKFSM

B1: 2M24 × Trop-2 clone C hG1 (bispecific antibody, V domains shown)
VH 1: QVQLVQSGAEVKKPGASVKVSCKSSGYTFTDYYIHWVRQAPGQGLEWMGWINPNSGDTNYAQKFQGRITMTRDTSISTAYLELSRLRSDDTAVFYCARNSGSYSFGYWGQGTLVTVSS
VL 1: DIQMTQSPSSVSASVGDRVTITCRASQGISSWLAWYQQKPGKAPKLLIFGASSLQSGVPSRFSGSGSGTDFTLTVSSLQPEDFATYYCQQAYSFPFTFGPGTKVDIE
VH 2: QVQLVQSGSELKKPGASVKLSCKASGYTFTSYGMNWVRQAPGQGLEWMGWINTNTGNPTYAQGFTGRFVFSLDTSVSTAYLQISSLKAEDTAVYYCARGYNWNDGDFDYWGQGTLVTVSS
VL 2: AIQMTQSPSSLSPSVGDRVTITCRASQGIRNDLGWYQQKPGKAPKLLIFAASSLQSGVPSRFSGSGSGTDFTLTISNLQPEDFATYYCLQNYNYPLTFGGGTKVEIK
notes: Full chains appear only in embodiments and are not tied to the tested molecule; also called anti-Dectin-1 x anti-Trop-2 bispecific antibody; DR02B.77
B2: 2M24 × Trop-2 clone B hG1 (bispecific antibody, V domains shown)
VH 1: QVQLVQSGAEVKKPGASVKVSCKSSGYTFTDYYIHWVRQAPGQGLEWMGWINPNSGDTNYAQKFQGRITMTRDTSISTAYLELSRLRSDDTAVFYCARNSGSYSFGYWGQGTLVTVSS
VL 1: DIQMTQSPSSVSASVGDRVTITCRASQGISSWLAWYQQKPGKAPKLLIFGASSLQSGVPSRFSGSGSGTDFTLTVSSLQPEDFATYYCQQAYSFPFTFGPGTKVDIE
VH 2: QVQLQESGPGLVKPSGTLSLTCAVSGGSISSSNWWSWVRQPPGKGLEWIGEIYHDGSTDYFPSLKSRVTISVDKSKNQFSLKLSSVTAADTAVYYCARDNWGFDYWGQGTLVTVSS
VL 2: DIVLTQSPGTLSLSPGERATLSCRASQSVSSSYLAWYQQKPGQAPRLLISGASSRATGIPDRFSGSGSGTDFTLTISRLEPEDFAVYYCQQYGSSHRTFGQGTKVEIK
notes: Full chains appear only in embodiments and are not tied to the tested molecule; also called anti-Dectin-1 x anti-Trop-2 bispecific antibody; DR02B.65
B3: Dectin-1 2M24.124 x Trop-2 clone A hIgG1 (bispecific antibody)
anti-Dectin-1 heavy chain: QVQLVQSGAEVKKPGASVKVSCKASGYTFTDYYMHWVRQAPGQGLEWMGWINPNEGDTNYAQKFEGRITMTRDTSISTAYMELSRLRSDDTAVYYCARNTGAYSFGYWGCGTLVTVSS
anti-Dectin-1 light chain: DIQMTQSPSSVSASVGDRVTITCRASQGISSWLAWYQQKPGKCPKLLIYGASDLQSGVPSRFSGSGSGTDFTLTISSLQPEDFATYYCQQAYGFPFTFGPGTKVDIK
anti-Trop-2 heavy chain: QVQLQQSGSELKKPGASVKVSCKASGYTFTNYGMNWVKQAPGQGLKWMGWINTYTGEPTYTDDFKGRFAFSLDTSVSTAYLQISSLKADDTAVYFCARGGFGSSYWYFDVWGQGSLVTVSS
anti-Trop-2 light chain: DIQLTQSPSSLSASVGDRVSITCKASQDVSIAVAWYQQKPGKAPKLLIYSASYRYTGVPDRFSGSGSGTDFTLTISSLQPEDFAVYYCQQHYITPLTFGAGTKVEIK
notes: member of group m9; also called 2M24.124xTrop-2 clone A hG1; disulfide-engineered Fab-format bispecific, clone A
B4: Dectin-1 2M24.124 x Trop-2 clone B hIgG1 (bispecific antibody)
anti-Dectin-1 heavy chain: QVQLVQSGAEVKKPGASVKVSCKASGYTFTDYYMHWVRQAPGQGLEWMGWINPNEGDTNYAQKFEGRITMTRDTSISTAYMELSRLRSDDTAVYYCARNTGAYSFGYWGCGTLVTVSS
anti-Dectin-1 light chain: DIQMTQSPSSVSASVGDRVTITCRASQGISSWLAWYQQKPGKCPKLLIYGASDLQSGVPSRFSGSGSGTDFTLTISSLQPEDFATYYCQQAYGFPFTFGPGTKVDIK
anti-Trop-2 heavy chain: QVQLQESGPGLVKPSGTLSLTCAVSGGSISSSNWWSWVRQPPGKGLEWIGEIYHDGSTDYFPSLKSRVTISVDKSKNQFSLKLSSVTAADTAVYYCARDNWGFDYWGQGTLVTVSS
anti-Trop-2 light chain: DIVLTQSPGTLSLSPGERATLSCRASQSVSSSYLAWYQQKPGQAPRLLISGASSRATGIPDRFSGSGSGTDFTLTISRLEPEDFAVYYCQQYGSSHRTFGQGTKVEIK
notes: member of group m9; also called 2M24.124xTrop-2 clone B hG1; disulfide-engineered Fab-format bispecific, clone B

Columns and labels:
[1] = target: T1, human Trop-2 expressed on cells (A-431, …); assay: flow cytometry on CHO-K1-hTrop2 cells, fluorescent anti-human secondary antibody
Method: (§1) FIGS. 2A-2D show binding assays in which cells expressing human Trop-2 were incubated with anti-Dectin-1 x anti-Trop-2 bispecific antibodies with human IgG1 Fc (as indicated) or isotype control, and binding was measured by flow cytometry using a fluorescently labeled anti-human secondary antibody. Shown are binding of the indicated antibodies to human epidermoid carcinoma A-431 cells (FIG. 2A), human gastric carcinoma NCI-N87 cells (FIG. 2B), human breast cancer SKBR3 cells (FIG. 2C), or CHO-K1 cells expressing human Trop-2 (FIG. 2D).
(§2) Human cancer cell lines and CHO cells expressing human Trop-2 (CHO-K1-hTrop2 cells) were incubated with the anti-Dectin-1 x anti-Trop-2 bispecific antibodies, Trop-2 clones 15, 45, 76, 77, 63, 64, 65 and 123, or the hIgG1 isotype, followed by a fluorescent anti-human secondary antibody. The primary antibodies were used in an 8-point serial dose titration starting at 300 or 100 nM and diluted 1 to 3.

[2] = target: T1, human Trop-2 expressed on cells (A-431, …); assay: flow cytometry on A-431 cells, fluorescent anti-human secondary antibody
Method: as §1, §2

[3] = target: T1, human Trop-2 expressed on cells (A-431, …); assay: cell-based or functional assay
[4] = target: T2, Human Trop-2 ECD protein; assay: BLI, hTrop-2 ECD captured via anti-HIS Tag, bispecific antibody in solution (monovalent)
Method: Monovalent binding affinity was measured by biosensor (BLI). Human Trop-2 ECD protein was captured on biosensor via anti-HIS Tag. On and off rate binding was measured against bispecific antibodies with 1 arm binding to hTrop2 at varying concentrations. On rate and off rate measurements were fitted to generated KD values.
Monovalent binding affinity of each anti-Dectin-1 x anti-Trop-2 bispecific antibody to the human Trop-2 ECD was also measured by biosensor (BLI).

[5] = target: T3, human Dectin-1 isoform A on HEK-Blue …; assay: cell-based or functional assay
[6] = target: T1, human Trop-2 expressed on cells (A-431, …); assay: flow cytometry on NCI-N87 cells, fluorescent anti-human secondary antibody
Method: as §1, §2

[7] = target: T1, human Trop-2 expressed on cells (A-431, …); assay: flow cytometry on SKBR3 cells, fluorescent anti-human secondary antibody
Method: as §1, §2

[8] = target: T1, human Trop-2 expressed on cells (A-431, …); assay: flow cytometry on CHO-K1 cells expressing hTrop-2 (sheet title: Binding to Chok1 hTrop2)
[9] = target: T3, human Dectin-1 isoform A on HEK-Blue …; assay: flow cytometry on HEK cells expressing hDectin-1 (sheet title: Binding to HEK Blue Dectin 1a cells)
[10] = target: T3, human Dectin-1 isoform A on HEK-Blue …; assay: cell-based or functional assay; remark: listed apart in the source

Binder | EC50 [1] | EC50 [2] | Induction of phagocytosis in vitro of A-431 cells by human macrophages, EC50 [3] | Induction of phagocytosis in vitro of NCI-N87 cells by human macrophages, EC50 [3] | Induction of phagocytosis in vitro of SKBR3 cells by human macrophages, EC50 [3] | Kd [4] | koff [4] | kon [4] | Dectin-1 pathway activation (SEAP secretion), HEK-Blue hDectin-1a cells in the presence of A-431 cells, EC50 [5] | Dectin-1 pathway activation (SEAP secretion), HEK-Blue hDectin-1a cells in the presence of CHO-K1-hTrop2 cells, EC50 [5] | Dectin-1 pathway activation (SEAP secretion), HEK-Blue hDectin-1a cells in the presence of NCI-N87 cells, EC50 [5] | Dectin-1 pathway activation (SEAP secretion), HEK-Blue hDectin-1a cells in the presence of SKBR3 cells, EC50 [5] | EC50 [6] | EC50 [7] | EC50 (read off the curve) [8] | EC50 (read off the curve) [9] | EC50 of SEAP secretion by the hDectin-1 reporter cells (hDec1 Reporter Assay; the Trop-2-expressing cell line is not named) [10]
B1 | 7.25 nM | 53.2 nM | 0.45 nM | 0.132 nM | 0.319 nM | 12.9 nM | 0.00181 s⁻¹ | 140000 M⁻¹ s⁻¹ | 0.08 µg/mL | 0.05 µg/mL | 0.06 µg/mL | 0.05 µg/mL | 39.5 nM | 28 nM | – | – | –
B2 | 4.32 nM | 7.56 nM | 0.34 nM | 1.12 nM | 0.269 nM | 9.55 nM | 0.000475 s⁻¹ | 49700 M⁻¹ s⁻¹ | 0.04 µg/mL | 0.07 µg/mL | 0.03 µg/mL | 0.04 µg/mL | 17.9 nM | 24.2 nM | – | – | –
B3 | – | – | – | – | – | – | – | – | – | – | – | – | – | – | ~5 nM | ~0.7 nM | 0.62 nM
B4 | – | – | – | – | – | – | – | – | – | – | – | – | – | – | ~7 nM | ~0.7 nM | 0.61 nM
